Measured values: patent US20240192215A1 (E AND S HEALTHCARE, published 2024)

T1: Peptide_049 (human)
T1 construct: 15-mer of hTrx1 on microarray
T1 peptide: CGPCKMIKPFFHSLS

T2: Peptide_053 (human)
T2 construct: 15-mer of hTrx1 on microarray
T2 peptide: KMIKPFFHSLSEKYS

T3: Peptide_056 (human)
T3 construct: 15-mer of hTrx1 on microarray
T3 peptide: KPFFHSLSEKYSNVI

T4: Peptide_054 (human)
T4 construct: 15-mer of hTrx1 on microarray
T4 peptide: MIKPFFHSLSEKYSN

T5: Peptide_050 (human)
T5 construct: 15-mer of hTrx1 on microarray
T5 peptide: GPCKMIKPFFHSLSE

T6: Peptide_055 (human)
T6 construct: 15-mer of hTrx1 on microarray
T6 peptide: IKPFFHSLSEKYSNV

T7: Peptide_052 (human)
T7 construct: 15-mer of hTrx1 on microarray
T7 peptide: CKMIKPFFHSLSEKY

T8: Peptide_057 (human)
T8 construct: 15-mer of hTrx1 on microarray
T8 peptide: PFFHSLSEKYSNVIF

T9: Peptide_046 (human)
T9 construct: 15-mer of hTrx1 on microarray
T9 peptide: ATWCGPCKMIKPFFH

T10: Peptide_048 (human)
T10 construct: 15-mer of hTrx1 on microarray
T10 peptide: WCGPCKMIKPFFHSL

T11: Peptide_047 (human)
T11 construct: 15-mer of hTrx1 on microarray
T11 peptide: TWCGPCKMIKPFFHS

T12: human thioredoxin-1 (Trx1) (human, UniProt P10599 1-105)
T12 construct: also called hTrx1; hTRX1
T12 sequence (looked up): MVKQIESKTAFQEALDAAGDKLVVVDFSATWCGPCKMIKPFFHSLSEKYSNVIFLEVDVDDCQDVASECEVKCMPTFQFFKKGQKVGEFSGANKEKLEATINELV

T13: Peptide_013 (human)
T13 construct: 15-mer on microarray; not native form, includes recombinant insert region
T13 peptide: HHHHHHVKQIESKTA

T14: Peptide_045 (human)
T14 construct: 15-mer of hTrx1 on microarray
T14 peptide: SATWCGPCKMIKPFF

T15: Peptide_019 (human)
T15 construct: 15-mer of hTrx1 on microarray
T15 peptide: VKQIESKTAFQEALD

T16: Peptide_021 (human)
T16 construct: 15-mer of hTrx1 on microarray
T16 peptide: QIESKTAFQEALDAA

B1: monoclonal antibody B266-1 (antibody, human IgG1)
light: QIVLTQSPAIMSASPGEKVTMTCSASSRISYMYWYQQKPGTSPKRWIYDTSKLASGVPARFSGSGSGTSYSLTISTMEAEDAATYYCHQRSSYPTFGAGTKLELKSVAAPSVFIFPPSDEQLKSGTASVVCLLNNFYPREAKVQWKVDNALQSGNSQESVTEQDSKDSTYSLSSTLTLSKADYEKHKVYACEVTHQGLSSPVTKSFNRGEC
heavy: not shown
notes: B266 with the Fc part changed to human IgG1; also called B266-1 (Trx1-hIgG1); B266-1 (hTrx1-hIgG1)
B2: monoclonal antibody B264 (antibody, mouse IgG1, kappa, V domains shown)
VH: QVQLQQSGAELARPGASVKMSCKASGYTFTSYTMHWVKQRPGQGLEWIGYINPTSDYTNYNQKFKDKATLTADKSSSTAYMQLSSLTSEDSAVYFCASEGGFLYYFDYWGQGTTLTVSS
VL: DVLMTQTPLSLPVSLGDQASISCRSSQSIVHSNGNTYLEWYLQKPGQSPKLLIYKVSNRFSGVPDRFSGSGSGTDFTLKISRVEAEDLGVYYCFQGSHVPYTFGGGTKLEIKR
notes: also called AB264; B264 (Trx1-mIgG1)

Tests used:
Peptide_049 [1] = target: T1, Peptide_049; assay: peptide microarray, 0.0016 ug/mL
Method: (§1) 5, 1, 0.2, 0.04, 0.008 and 0.0016 μg/mL serial dilutions were incubated on a single multi-well microarray slide at 30° C. for 1 hour. The slide includes 21 individual mini-arrays (one mini-array per sample dilution).
(§2) DyLight 650 was used as a label. False-positive binding to a peptide was evaluated by performing one additional control incubation in which only a secondary antibody was applied on the same microarray slide. Before performing each step, the microarrays were washed with a washing buffer.

Peptide_053 [2] = target: T2, Peptide_053; assay: peptide microarray, 0.0016 ug/mL
Method: as §1, §2

Peptide_056 [3] = target: T3, Peptide_056; assay: peptide microarray, 0.0016 ug/mL
Method: as §1, §2

Peptide_054 [4] = target: T4, Peptide_054; assay: peptide microarray, 0.0016 ug/mL
Method: as §1, §2

Peptide_050 [5] = target: T5, Peptide_050; assay: peptide microarray, 0.0016 ug/mL
Method: as §1, §2

Peptide_055 [6] = target: T6, Peptide_055; assay: peptide microarray, 0.0016 ug/mL
Method: as §1, §2

Peptide_052 [7] = target: T7, Peptide_052; assay: peptide microarray, 0.0016 ug/mL
Method: as §1, §2

Peptide_057 [8] = target: T8, Peptide_057; assay: peptide microarray, 0.0016 ug/mL
Method: as §1, §2

Peptide_046 [9] = target: T9, Peptide_046; assay: peptide microarray, 0.0016 ug/mL
Method: as §1, §2

Peptide_048 [10] = target: T10, Peptide_048; assay: peptide microarray, 0.0016 ug/mL
Method: as §1, §2

Peptide_047 [11] = target: T11, Peptide_047; assay: peptide microarray, 0.0016 ug/mL
Method: as §1, §2

Peptide_049 [12] = target: T1, Peptide_049; assay: peptide microarray, 1 ug/mL
Method: as §1, §2

Peptide_053 [13] = target: T2, Peptide_053; assay: peptide microarray, 1 ug/mL
Method: as §1, §2

Peptide_056 [14] = target: T3, Peptide_056; assay: peptide microarray, 1 ug/mL
Method: as §1, §2

Peptide_054 [15] = target: T4, Peptide_054; assay: peptide microarray, 1 ug/mL
Method: as §1, §2

Peptide_050 [16] = target: T5, Peptide_050; assay: peptide microarray, 1 ug/mL
Method: as §1, §2

Peptide_055 [17] = target: T6, Peptide_055; assay: peptide microarray, 1 ug/mL
Method: as §1, §2

Peptide_052 [18] = target: T7, Peptide_052; assay: peptide microarray, 1 ug/mL
Method: as §1, §2

Peptide_057 [19] = target: T8, Peptide_057; assay: peptide microarray, 1 ug/mL
Method: as §1, §2

Peptide_046 [20] = target: T9, Peptide_046; assay: peptide microarray, 1 ug/mL
Method: as §1, §2

Peptide_048 [21] = target: T10, Peptide_048; assay: peptide microarray, 1 ug/mL
Method: as §1, §2

Peptide_047 [22] = target: T11, Peptide_047; assay: peptide microarray, 1 ug/mL
Method: as §1, §2

Peptide_049 [23] = target: T1, Peptide_049; assay: peptide microarray, 5 ug/mL
Method: as §1, §2

Peptide_053 [24] = target: T2, Peptide_053; assay: peptide microarray, 5 ug/mL
Method: as §1, §2

Peptide_056 [25] = target: T3, Peptide_056; assay: peptide microarray, 5 ug/mL
Method: as §1, §2

Peptide_054 [26] = target: T4, Peptide_054; assay: peptide microarray, 5 ug/mL
Method: as §1, §2

Peptide_050 [27] = target: T5, Peptide_050; assay: peptide microarray, 5 ug/mL
Method: as §1, §2

Peptide_055 [28] = target: T6, Peptide_055; assay: peptide microarray, 5 ug/mL
Method: as §1, §2

Peptide_052 [29] = target: T7, Peptide_052; assay: peptide microarray, 5 ug/mL
Method: as §1, §2

Peptide_057 [30] = target: T8, Peptide_057; assay: peptide microarray, 5 ug/mL
Method: as §1, §2

Peptide_046 [31] = target: T9, Peptide_046; assay: peptide microarray, 5 ug/mL
Method: as §1, §2

Peptide_048 [32] = target: T10, Peptide_048; assay: peptide microarray, 5 ug/mL
Method: as §1, §2

Peptide_047 [33] = target: T11, Peptide_047; assay: peptide microarray, 5 ug/mL
Method: as §1, §2

[34] = target: T12, human thioredoxin-1 (Trx1); assay: ELISA on 100 ng coated Trx1, antibody titration, Prism fit
Method: 100 μl of a coating buffer and 100 ng of Trx1 were mixed and dispensed to each well, and then reacted at 4° C. for 16 hours or more. After the reaction solution was removed, 200 μl of PBSA was dispensed to each well and reacted at 37° C. for 120 minutes. […] After the reaction solution was removed, washing was performed by dispensing 200 μl of a washing buffer to each well. The above-described process was performed two times.
After the reaction solution was removed, washing was performed by dispensing 200 μl of a washing buffer to each well. The above-described process was performed three times.

Peptide_013 = target: T13, Peptide_013; assay: peptide microarray, 0.2 ug/mL
Method: as §1, §2

Peptide_045 = target: T14, Peptide_045; assay: peptide microarray, 0.2 ug/mL
Method: as §1, §2

Peptide_019 = target: T15, Peptide_019; assay: peptide microarray, 0.2 ug/mL
Method: as §1, §2

Peptide_021 = target: T16, Peptide_021; assay: peptide microarray, 0.2 ug/mL
Method: as §1, §2

| Binder | signal (blank-control = 1) (Peptide_049 [1]) | signal (blank-control = 1) (Peptide_053 [2]) | signal (blank-control = 1) (Peptide_056 [3]) | signal (blank-control = 1) (Peptide_054 [4]) | signal (blank-control = 1) (Peptide_050 [5]) | signal (blank-control = 1) (Peptide_055 [6]) | signal (blank-control = 1) (Peptide_052 [7]) | signal (blank-control = 1) (Peptide_057 [8]) | signal (blank-control = 1) (Peptide_046 [9]) | signal (blank-control = 1) (Peptide_048 [10]) | signal (blank-control = 1) (Peptide_047 [11]) | signal (blank-control = 1) (Peptide_049 [12]) | signal (blank-control = 1) (Peptide_053 [13]) | signal (blank-control = 1) (Peptide_056 [14]) | signal (blank-control = 1) (Peptide_054 [15]) | signal (blank-control = 1) (Peptide_050 [16]) | signal (blank-control = 1) (Peptide_055 [17]) | signal (blank-control = 1) (Peptide_052 [18]) | signal (blank-control = 1) (Peptide_057 [19]) | signal (blank-control = 1) (Peptide_046 [20]) | further results |
| --- | --- | --- | --- | --- | --- | --- | --- | --- | --- | --- | --- | --- | --- | --- | --- | --- | --- | --- | --- | --- | --- |
| B1 | 1.37 | 1.42 | 1.18 | 0.73 | 0.62 | 1.05 | 1.37 | 1.93 | 1.79 | 7.61 | 1.18 | 1.96 | 2.13 | 1.84 | 1.15 | 1.09 | 1.38 | 2.38 | 2.07 | 3.18 | signal (blank-control = 1) (Peptide_048 [21]): 6; signal (blank-control = 1) (Peptide_047 [22]): 2.25; signal (blank-control = 1) (Peptide_049 [23]): 2.89; signal (blank-control = 1) (Peptide_053 [24]): 2.45; signal (blank-control = 1) (Peptide_056 [25]): 2.89; signal (blank-control = 1) (Peptide_054 [26]): 2.36; signal (blank-control = 1) (Peptide_050 [27]): 2.19; signal (blank-control = 1) (Peptide_055 [28]): 2.08; signal (blank-control = 1) (Peptide_052 [29]): 3.84; signal (blank-control = 1) (Peptide_057 [30]): 2.39; signal (blank-control = 1) (Peptide_046 [31]): 6.41; signal (blank-control = 1) (Peptide_048 [32]): 6.1; signal (blank-control = 1) (Peptide_047 [33]): 5.58; Kd [34]: 11 pM |
| B2 | 1.18 | 1.41 | 0.99 | 0.55 | 0.51 | 0.81 | 1.15 | 1.73 | 1.69 | 7.46 | 1.15 | 1.2 | 8.52 | 2.58 | 1.43 | 0.47 | 3.26 | 4.43 | 2.19 | 5.62 | signal (blank-control = 1) (Peptide_013): 1.85; signal (blank-control = 1) (Peptide_045): 4.58; signal (blank-control = 1) (Peptide_019): 1.48; signal (blank-control = 1) (Peptide_021): 2.08; signal (blank-control = 1) (Peptide_048 [21]): 3.91; signal (blank-control = 1) (Peptide_047 [22]): 4.07; signal (blank-control = 1) (Peptide_049 [23]): 1.11; signal (blank-control = 1) (Peptide_053 [24]): 6.49; signal (blank-control = 1) (Peptide_056 [25]): 2.86; signal (blank-control = 1) (Peptide_054 [26]): 1.46; signal (blank-control = 1) (Peptide_050 [27]): 0.54; signal (blank-control = 1) (Peptide_055 [28]): 3.57; signal (blank-control = 1) (Peptide_052 [29]): 5.14; signal (blank-control = 1) (Peptide_057 [30]): 2.44; signal (blank-control = 1) (Peptide_046 [31]): 6.2; signal (blank-control = 1) (Peptide_048 [32]): 2.15; signal (blank-control = 1) (Peptide_047 [33]): 4.89; Kd [34]: 130 pM |
